# Experimental data: article PMC3877365
# Legend:
# [1] = biological target: BCRZFP-orfA fusion protein (walleye dermal sarcoma virus orfA protein fused to the BCR-ABL zinc finger protein) (walleye dermal sarcoma virus (WDSV)); assay: two-hybrid; ZFN-Y2H, LacZ reporter: relative β-galactosidase activity (ONPG assay) of colonies in liquid medium, wild-type Gal4 (pADH-Gal4) set to 100%
# [2] = biological target: BCRZFP-orfA fusion protein (walleye dermal sarcoma virus orfA protein fused to the BCR-ABL zinc finger protein) (walleye dermal sarcoma virus (WDSV)); assay: two-hybrid; ZFN-Y2H: bait fused to BCR-ZFP, prey fused to FokI, co-transformed into AH109 carrying the reporter pADH-Gal4-BS; growth on SD plates lacking histidine and adenine, 30°C, at least three days; colonies counted against non-selective plates; spotting of dilutions
# Sequence of FokI-E2F5 fusion protein (human E2F5 fused to the FokI nuclease domain) (natural protein) (Q15329 whole entry, the tested form may be a part): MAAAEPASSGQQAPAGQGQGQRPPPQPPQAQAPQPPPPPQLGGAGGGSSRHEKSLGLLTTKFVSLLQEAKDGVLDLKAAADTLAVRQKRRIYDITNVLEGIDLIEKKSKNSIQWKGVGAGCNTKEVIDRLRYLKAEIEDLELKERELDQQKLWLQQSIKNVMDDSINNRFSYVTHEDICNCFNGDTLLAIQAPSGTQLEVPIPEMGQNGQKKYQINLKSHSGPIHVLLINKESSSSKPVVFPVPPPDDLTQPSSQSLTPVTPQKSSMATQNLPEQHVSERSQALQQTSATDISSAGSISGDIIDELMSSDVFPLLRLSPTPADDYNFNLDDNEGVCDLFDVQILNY
# Sequence of BCRZFP-orfA fusion protein (walleye dermal sarcoma virus orfA protein fused to the BCR-ABL zinc finger protein) (walleye dermal sarcoma virus (WDSV)) (Q88939 whole entry, the tested form may be a part): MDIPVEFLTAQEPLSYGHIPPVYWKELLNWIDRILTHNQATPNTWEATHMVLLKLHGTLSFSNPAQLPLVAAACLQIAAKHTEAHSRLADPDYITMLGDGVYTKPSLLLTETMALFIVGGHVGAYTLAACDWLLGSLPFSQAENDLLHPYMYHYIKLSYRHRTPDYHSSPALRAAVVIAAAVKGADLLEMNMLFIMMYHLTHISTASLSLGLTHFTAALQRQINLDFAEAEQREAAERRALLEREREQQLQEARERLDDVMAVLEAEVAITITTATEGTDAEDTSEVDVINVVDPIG
substance,measurement,setting,value
FokI-E2F5 fusion protein (human E2F5 fused to the FokI nuclease domain) (natural protein),relative β-galactosidase activity,[1],84.3%
same,percent of transformants surviving on selective medium,[2],22.5%
